We go through two substances from patent US20220372549A1, “Thermally Responsive Conjugates” (MIP Diagnostic Limited, priority 2019, published 2022).

One data set deals with pyrophosphatase (PPase). The following applies: cited from earlier work.
The subject of data set [1] is UltraScript 2.0 Reverse Transcriptase. As to conditions: 150 ng conjugate, RTase 324 nM, 30 min at 25, 43, 55 and then 35° C.; loss of product peak.
Procedure: The reaction was performed using the UltraScript 2.0 Reverse Transcriptase from PCR Bio (UK), according to the instructions of the manufacturer. General conditions were, for a 20 μl total reaction volume:
RNA=5 μg template plus random hexamer primers, in PCR Bio buffer mix.
Individual reaction vials were kept at the set temperature for 30 min and the reaction allowed to proceed. The temperatures used were 25° C., 43° C., 55° C. and 35° C., the latter being done after the 55° C. step. After each incubation, 1-2 μl of cDNA product was taken for qPCR amplification and quantification. Inhibition detected by observing loss of product peak.

For the substance “pyrophosphatase [unconjugated free enzyme]”, the optimum temperature with pyrophosphatase (PPase) was 45 °C. In the case of “zidovudine-poly-N-isopropylmethacrylamide”, the “RTase inhibition, thermal reversibility” value in data set [1] is “inhibition was reversible”.
